From patent publication US8076087B2, “Galectin sequences and compositions and methods utilizing same for treating or diagnosing arthritis and other chronic inflammatory diseases” (Medical Research Fund of Tel Aviv Souraskv Medical Center, priority 2002, dated 2011)

Legend:
[1] = test system: IL-1β; assay: IL-1β levels in media of LPS-supplemented human synovial tissue / cell cultures, sandwich enzyme immunoassay; assay type: cell-based; conditions: LPS 3 μg/ml, 50-2000 ng/ml, 48 hours
Description: (§1) Specimen Selection and Culture Conditions: Synovial tissues were obtained from patients undergoing total knee or hip replacement for osteoarthritis (OA). Within 2 hours of removal, synovial tissues were cut into small pieces, of a few millimeters in diameter. Synovial fibroblasts were cultured in 2 ml RPMI 1640 supplemented with 2 mM L-glutamine, 100 U/ml penicillin and 100 μg/ml streptomycin sulphate (Biological Industries).
(§2) Inflammatory cells and PBLs derived from joints of rheumatoid arthritic (RA) patients were cultured individually [RPMI-1640 (Sigma, Israel)]. The murine fibroblast line, NIH 3T3, was used as a control. The recombinant galectin-8 peptide (r-galectin-8) was added to the culture medium of the synovial fibroblasts at a concentration of 0.125 μM, 0.25 μM, 0.5 μM and 1 μM) together with lipopolysaccharide (LPS, 3 μg/ml). The recombinant galectin-8 peptide variants (r-galectin-8 variant 1 and r-galectin-8 variant 2) were added to all the culture mediums in the following concentrations: 50 ng/ml, 125 ng/ml, 250 ng/ml, 500 ng/ml, 750 ng/ml, 1 μg/ml and 2 μg/ml together with lipopolysaccharide (LPS, 3 μg/ml). Following 48 hours of incubation (37° C., 5% CO2), the measurement of IL-1β, TNF-α and IL-1ra production was performed in supernatants by quantitative sandwich enzyme immunoassay technique (R&D Systems, Inc., USA). Detection limits were 1 pg/ml to 14 pg/ml. IL-1ra production was tested with and without the addition of lipopolysaccharide (LPS, 3 μg/ml) to the culture media.

[2] = test system: TNFα; assay: TNFα levels in media of LPS-supplemented human synovial tissue / cell cultures, sandwich enzyme immunoassay; assay type: cell-based; conditions: LPS 3 μg/ml, 50-2000 ng/ml, 48 hours
Description: as §1, §2

[3] = test system: IL-1β; assay: IL-1β levels in media of NIH 3T3 fibroblasts (negative control cells); assay type: cell-based, murine; conditions: LPS 3 μg/ml, 50-2000 ng/ml, 48 hours
Description: as §2

[4] = test system: TNFα; assay: TNFα levels in media of NIH 3T3 fibroblasts (negative control cells); assay type: cell-based, murine; conditions: LPS 3 μg/ml, 50-2000 ng/ml, 48 hours
Description: as §2

[5] = test system: IL-1ra; assay: IL-1ra levels in media of NIH 3T3 fibroblasts (negative control cells); assay type: cell-based, murine; conditions: LPS 3 μg/ml, 50-2000 ng/ml, 48 hours
Description: as §2

[6] = test system: synovial fluid cells from RA patients; assay: Apoptosis induction, annexin V/PI flow cytometry, synovial fluid cells; assay type: cell-based, human; conditions: inflammatory cells from joints of arthritic patients, lowest concentration 50 ng/ml
Description: (§3) The assay was performed by Phosphatidyl Serine Detection Kit (IOP-116F FITC-conjugated, IQ Products, The Netherlands) using the manufacturer instructions. Human fibroblast cells from OA patients, synovial fluid cells and PBLs from RA and other arthritic patients were incubated with increasing concentrations of galectin-8 variants 1 and 2 (50-2000 ng/ml). Specific binding of annexin V was performed by the incubation of cells for 20 minutes on ice in a binding calcium buffer containing a saturating concentration of annexin V-fluorescein isothiocyanate (FITC) and propdium iodide (PI). After incubation, the cells were pelleted, and analyzed in FACS analyzer (Beckton Dickinson, San Jose, Calif.). Annexin V^+/PI^+ cells were defined as necrotic, while annexin V^+/PI^− cells were defined as apoptotic. The percent of the apoptotic cells of the total cells was determined.

[7] = test system: human fibroblasts from OA patients; assay: Apoptosis induction, annexin V/PI flow cytometry, OA fibroblasts; assay type: cell-based; conditions: for total cell population in the apoptotic area: 24 h, no-addition control 39.5%
Description: as §3

[8] = test system: PBLs of arthritic patients; assay: Apoptosis induction, annexin V/PI flow cytometry, PBLs; assay type: cell-based, human; conditions: lowest concentration 50 ng/ml
Description: as §3

[9] = test system: collagen induced arthritis (CIA); assay: Collagen-induced arthritis (CIA) in DBA/1 mice, footpad thickness; assay type: in vivo; conditions: 100 μg per injection
Text: Animal treatment: 44 DBA/1 mice were induced with a joint inflammatory disease by two subcutaneous (s.c.) injections into the base of the tail of type II collagen three weeks apart. Joint inflammation, which appears several days after the last collagen injection, causes enhanced marked foot pad swelling, as well as swelling of other joints. The diameter of nonarthritic footpads is 1.5 to 1.7 mm. A footpad diameter of 1.9 to 2.0 mm was arbitrarily set as disease onset. […] Human galectin-8 protein and variants (100 μg per injection) as well as control injections were injected IP at disease onset and then every day for 11 days. The 44 mice were divided into 5 experimental groups as follows: Group 1 (negative control): systemic injection (starting at CIA onset) of PBS or PBS+30% glycerol (storing dilution solution of galectin proteins) (10 mice). Group 2 (positive control): systemic injection (starting at CIA onset) of anti-mouse TNFα mAb (cat. no. AMC-3012, Biosource Int. Inc. USA) adhering to the standard protocol (i.e., 100 μg antibody/mouse every day for 11 days) (6 mice). Group 3 (positive control): systemic injection of human galectin-8 protein according to the standard protocol (10 mice). Group 4: systemic injection of 100 μg per dose of human galectin-8 variant 1 according to the standard protocol (10 mice). Group 5: systemic injection of 100 μg per dose of human galectin-8 variant 2 (8 mice). The effect on footpad thickness was determined in a “blind” fashion, recording the electronic microcaliper measurements of the thickness of the joints, by picking the animals at random and recording their ears' signs following measurement. The mice were bled prior to disease induction, following disease onset and upon termination of the experiment (approximately day 11). The sera were stored and later analyzed for the presence of rheumatoid factor (RF) and cytokines. The mice were killed upon termination of the experiment and the joints removed from some of the animals for histopathological examination.

[10] = PBLs from RA patients, listed as galectin-8 var. 1
[11] = human fibroblasts from OA patients
[12] = human fibroblasts from OA patients, listed as galectin-8 var. 1
[13] = synovial fluid cells (SFCs), listed as galectin-8 var. 1

B1: galectin-8 variant 1: recombinant galectin-8 variant 1 polypeptide, SEQ ID NO: 6, isoform found in synovial fluid cells of arthritic patients (protein)
chain: MMLSLNNLQNIIYNPDLQSTQASSLELTEISRENVPKSGTPQLPSNRGGDISKIAPRTVYTKSKEARQSHFDLHENTTYELCVKSLPFAARLNTPMGPGRTVVVKGEVNANAKSFNVDLLAGKSKDIALHLNPRLNIKAFVRNSFLQESWGEEERNITSFPFSPGMYFEMIIYCDVREFKVAVNGVHSLEYKHRFKELSSIDTLEINGDIHLLEVRSW
[1]; PBLs from RA patients
  IL-1β levels in media: significantly and dose-dependently inhibited
[1]; [10]
  IL-1β levels in media: decrease
[1]; [11]
  IL-1β levels in media: significantly and dose-dependently inhibited
[1]; [12]
  IL-1β levels in media: decrease
[1]; synovial fluid cells (SFCs)
  IL-1β levels in media: significantly and dose-dependently inhibited
[1]; [13]
  IL-1β levels in media: decrease
[2]; PBLs from RA patients
  TNFα levels in media: significantly and dose-dependently inhibited
[2]; [10]
  TNFα levels in media: decrease
[2]; [11]
  TNFα levels in media: significantly and dose-dependently inhibited
[2]; [12]
  TNFα levels in media: decrease
[2]; synovial fluid cells (SFCs)
  TNFα levels in media: significantly and dose-dependently inhibited
[2]; [13]
  TNFα levels in media: decrease
[3]
  IL-1β levels in media: No effect
[3]; listed as galectin-8 var. 1
  IL-1β levels in media: remain unaffected
[4]
  TNFα levels in media: No effect
[4]; listed as galectin-8 var. 1
  TNFα levels in media: remain unaffected
[5]
  IL-1ra levels in media: No effect
[5]; listed as galectin-8 var. 1
  IL-1ra levels in media: remain unaffected
[6]
  maximal apoptotic effect: approximately 100%
[7]; 50 ng/ml
  total cell population in the apoptotic area: 32.5%
[7]; 125 ng/ml
  total cell population in the apoptotic area: 47.5%
[7]; 250 ng/ml
  total cell population in the apoptotic area: 48.4%
[7]; 500 ng/ml
  total cell population in the apoptotic area: 55.5%
[7]; 750 ng/ml
  total cell population in the apoptotic area: 58.5%
[7]; 1000 ng/ml
  total cell population in the apoptotic area: 77%
[7]; 2000 ng/ml
  total cell population in the apoptotic area: 77%
[7]; increasing concentrations (50-2000 ng/ml)
  percentage of apoptotic cells: gradually increased
[8]
  maximal apoptotic effect: approximately 100%
[9]; IP / systemic, from disease onset every day for 11 days
  CIA manifestations (footpad swelling): substantially reduced
[9]; every day for 11 days
  alleviating the swelling in the footpad, compared with positive controls: at least as effective as anti-TNFα mAb and the human galectin-8 recombinant peptide
